Data: JP2005515752A (dated 2005)

B1: マウスモノクローナル抗体14F3 (antibody, V domains shown)
VH: EVQLVESGGDLVKPGGSLKLSCAASGFTFSRYGMSWVRQTPDKRLEWVATISSGGSYTYYPDSVKGRFTISRDNAKNTLYLQMSSLKSEDTAMYYCARLDGYNYRWYFDVWGTGTTVTVSS
VL: DIVMTQSHKFMSTSVGDRVSITCKASQDVSSAVAWYQQKPGQSPKLLIYSASYRYTGVPDRFTGSGSGTDFTFTISSVQAEDLAVYYCQQHYSSPRTFGGGTNLEIKR
notes: Murine IgG2a/kappa purified from hybridoma; also called RANKL mAb 14F3; mAb14F3
B2: ヒトRANK−Fc融合蛋白質 (Fc fusion, human, UniProt Q9Y6Q6 30-212, looked up)
chain: IAPPCTSEKHYEHLGRCCNKCEPGKYMSSKCTTTSDSVCLPCGPDEYLDSWNEEDKCLLHKVCDTGKALVAVVAGNSTTPRRCACTAGYHWSQDCECCRRNTECAPGLGAQHPLQLNKDTVCKPCLAGYFSDAFSSTDKCRPWTNCTFLGKRVEHHGTEKSDAVCSSSLPARKPPNEPHVYLP
notes: Construct limits and Fc not described; also called RANK−Fc蛋白質; not shown: Fc part
B3: OPG−Fc (Fc fusion, UniProt O00300 22-201, looked up)
chain: ETFPPKYLHYDEETSHQLLCDKCPPGTYLKQHCTAKWKTVCAPCPDHYYTDSWHTSDECLYCSPVCKELQYVKQECNRTHNRVCECKEGRYLEIEFCLKHRSCPPGFGVVQAGTPERNTVCKRCPDGFFSNETSSKAPCRKHTNCSVFGLLLTQKGNATHDNICSGNSESTQKCGIDVTL
notes: also called osteoprotegerin-Fc; not shown: Fc part; not described

Tests used:
[1] = target: T1, 可溶性ヒトRANKL蛋白質 (human, UniProt O14788 140-317, limits assumed, biotinylated with NHS-biotin at 20:1 molar ratio in the competition ELISA (sites not given); not biotinylated in the cell assays); experiment: cell-based or functional assay
T1 sequence (looked up): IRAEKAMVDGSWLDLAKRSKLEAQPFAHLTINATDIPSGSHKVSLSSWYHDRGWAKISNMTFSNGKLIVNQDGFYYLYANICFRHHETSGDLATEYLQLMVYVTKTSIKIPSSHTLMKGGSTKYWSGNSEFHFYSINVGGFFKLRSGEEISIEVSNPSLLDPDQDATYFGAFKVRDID

[2] = target: T1, 可溶性ヒトRANKL蛋白質; experiment: competition ELISA: inhibition of biotinylated shRANKL binding to coated RANK-Fc
[3] = target: T1, 可溶性ヒトRANKL蛋白質; experiment: not described in an example; paragraph 39 names optical biosensor analysis for the Kd
[4] = target: T1, 可溶性ヒトRANKL蛋白質; experiment: competition ELISA: soluble competitor against biotinylated shRANKL binding to coated RANK-Fc

Binder	IC50, osteoclast formation from human monocytes with human soluble RANKL and M-CSF (multinucleated cells) [1]	IC50, osteoclast formation from mouse bone marrow cells stimulated by human sRANKL (TRAP-positive cells per well) [1]	concentration of complete inhibition, osteoclast formation from mouse bone marrow cells stimulated by human sRANKL [1]	IC50 [2]	Kd [3]	IC50 [4]
B1	~4 µg/mL	~0.2 µg/mL	1 µg/mL	~2 nM	~0.1 nM	–
B2	~0.5 µg/mL	–	10 µg/mL	–	–	~6 nM
B3	–	~0.2 µg/mL	1 µg/mL	~0.5 nM	–	–
